B1: Triggering receptor expressed on myeloid cells 2 (Homo sapiens), Q9NZC2 (parent)
chain: MEPLRLLILLFVTELSGAHNTTVFQGVAGQSLQVSCPYDSMKHWGRRKAWCRQLGEKGPCQRVVSTHNLWLLSFLRRWNGSTAITDDTLGGTLTITLRNLQPHDAGLYQCQSLHGSEADTLRKVLVEVLADPLDHRDAGDLWFPGESESFEDAHVEHSISRSLLEGEIPFPPTSILLLLACIFLIKILAASALWAAAWHGQKPGTHPPSELDCGHDPGYQLQTLPGLRDT

Variants of: B1
Settings: with tyobp_human TYROBP

effect of a mutation on the interaction | Variant
with no effect | S116C
with no effect | T66M

Variants of: B1
Settings: with tyobp_human TYROBP
Remark: another data set of the same source

effect of a mutation on the interaction | Variant
with no effect | R47H
increasing interaction strength | T66M

Reference: IntAct's records for PubMed 28490631
